One data set addresses T1, NgoS E687A (Neisseria gonorrhoeae, UniProt Q5F5J4 1-814, E687A).
T1 sequence: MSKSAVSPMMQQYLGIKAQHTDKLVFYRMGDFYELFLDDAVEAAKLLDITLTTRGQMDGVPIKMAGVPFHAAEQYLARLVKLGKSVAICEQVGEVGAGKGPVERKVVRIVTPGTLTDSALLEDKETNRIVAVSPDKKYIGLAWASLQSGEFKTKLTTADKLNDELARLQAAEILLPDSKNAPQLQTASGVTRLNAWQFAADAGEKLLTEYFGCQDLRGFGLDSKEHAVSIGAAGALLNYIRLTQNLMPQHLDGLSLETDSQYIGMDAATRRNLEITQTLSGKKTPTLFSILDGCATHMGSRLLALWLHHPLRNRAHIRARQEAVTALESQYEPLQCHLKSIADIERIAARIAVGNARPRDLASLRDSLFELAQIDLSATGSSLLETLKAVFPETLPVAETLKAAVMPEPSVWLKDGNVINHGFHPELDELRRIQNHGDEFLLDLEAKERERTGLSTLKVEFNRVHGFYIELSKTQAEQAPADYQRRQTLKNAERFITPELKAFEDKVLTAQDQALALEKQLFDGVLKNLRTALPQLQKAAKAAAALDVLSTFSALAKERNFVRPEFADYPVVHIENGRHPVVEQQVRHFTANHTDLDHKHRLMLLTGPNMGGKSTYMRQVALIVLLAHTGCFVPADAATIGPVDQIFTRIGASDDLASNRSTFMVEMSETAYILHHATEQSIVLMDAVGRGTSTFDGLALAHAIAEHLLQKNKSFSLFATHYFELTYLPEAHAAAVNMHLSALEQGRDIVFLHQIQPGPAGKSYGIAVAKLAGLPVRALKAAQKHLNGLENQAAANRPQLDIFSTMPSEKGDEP
The experiment in a line: fluorescence anisotropy.

Data set [1] concerns the target T2, NgoS (MutS) (Neisseria gonorrhoeae, UniProt Q5F5J4 1-814).
T2 sequence: T1 sequence with A687E
As to the kind of experiment: fluorescence anisotropy.

For data set [2], the target named is T2, NgoS (MutS). The experiment in a line: DLS.

Three molecules from publication PMC5758902 can be followed below.

Where a chain is given by its changes, count along the chain named.

B1: 31mer G:T heteroduplex (dsDNA)
DNA 1: GCGATGTTGCTGACGCTGGTGCCTGGCAGCT
DNA 2: AGCTGCCAGGCACCAGTGTCAGCAACATCGC
For B1, the binding result in the data set with NgoS E687A and with NgoS (MutS) [1] was “binds” each time.

B2: 30mer homoduplex (dsDNA)
DNA 1: AGCTGCCAGGCACCAGTGTCAGCGTCCTAT
DNA 2: ATAGGACGCTGACACTGGTGCCTGGCAGCT
Consider B2, for which the binding result with NgoS (MutS) [2] is “binds”.

B3: 30mer G:T heteroduplex (dsDNA)
DNA 1: B2 DNA 1
DNA 2: B2 DNA 2 with C22T
For B3, the binding result with NgoS (MutS) [2] is “binds”.
